Assay results from patent US20220144922A1 (Adimab, published 2022).

What was measured:
[1] = molecular target: RSV F protein of subtype A strain A2, on virus (respiratory syncytial virus subtype A …, UniProt P03420 26-574); experiment: cell-based or functional assay
[2] = molecular target: RSV F protein of subtype B strain 18537, on virus (respiratory syncytial virus subtype B …, UniProt P13843 26-574); experiment: cell-based or functional assay
[3] = molecular target: T1, postfusion RSV F ectodomain, subtype B (respiratory syncytial virus subtype B); experiment: BLI, IgG on sensor
T1 construct: extracellular domain; also called Postfusion subtype B
Procedure: (§1) IgG binding to DS-Cav1 and FA FP was determined by BLI measurements using a FortéBio Octet HTX instrument (Pall Life Sciences). […] Data was analyzed using the ForteBio Data Analysis Software 7. The data was fit to a 1:1 binding model to calculate an association and dissociation rate, and KD was calculated using the ratio kd/kₐ.

[4] = molecular target: T2, prefusion-stabilized RSV F ectodomain (DS-Cav1), subtype B (respiratory syncytial virus subtype B); experiment: BLI, IgG on sensor
T2 construct: extracellular domain; also called Prefusion subtype B
Procedure: as §1

[5] = molecular target: T3, postfusion RSV F ectodomain (F ΔFP), subtype A (respiratory syncytial virus subtype A, UniProt P03420 26-109; P03420 147-524); experiment: BLI, IgG on sensor
T3 construct: extracellular domain; also called Postfusion subtype A
Procedure: as §1

B1: ADI-15603 (antibody, V domains shown)
VH: QVQLVQSGGGLVQPGGSLRLSCAASGFTFGRHAMTWVRQAPGKGLEWVAGITATGDPTYYPDSVKGRFAVSRDNSRNTLYLQMDSLRVEDTALYYCARSWDDYGDLDWYFALWGRGTMVTVSS
VL: EIVMTQSPAILSVSPGERATLSCRASQSVSSSLAWYQQKPGQAPRLLIYGASTRATGIPPRFSGSGSGTQFTLTISSLQSEDVAVYYCQQYSDWPPLTFGGGTKVEIK
notes: IgG
Neut IC50 (ug/ml) subtype A [1]: 0.795 µg/mL | Neut IC50 (ug/ml) subtype B [2]: 0.273 µg/mL | Kd [3]: 11.9 nM | Kd [4]: 6.97 nM

B2: ADI-15606 (antibody, V domains shown)
VH: EVQLLESGGGLVQPGGSLRLSCAASGFTFRRYAMTWVRQAPGKGLEWVAAITATGDTTYYPDSVKGRFAVSRDNSRNTLYLQMDSLRAEDTALYYCAKSWDDYGDLDWYFALWGRGTLVTVSS
VL: DIVMTQSPAILSVSPGERATLSCRASQSVSSSLAWYQQKPGQAPRLLIYGASTRATGIPPRFSGSGSGTQFTLTISSLQSEDFAVYYCQQYSDWPPLTFGGGTKVEIK
notes: IgG
Neut IC50 (ug/ml) subtype A [1]: > 10 µg/mL | Neut IC50 (ug/ml) subtype B [2]: 0.802 µg/mL | Kd [3]: 5.89 nM | Kd [4]: 5.75 nM

B3: ADI-15653 (antibody, V domains shown)
VH: QVQLVQSGAEVKKPGSSVKVSCKSSGGTFSNYIISWVRQAPGQGLEWMGGIVPLSGTTDYAQKFQGRVTITADKSTTTAYMELRTLRPEDTAVYYCARGSGGSNAYFDPWGQGTLVTVSS
VL: QSVVTQPPSVSVAPGKTAKITCGGNNIGSKSVYWYQQKPGQAPVLVMYYDTYRPSGIPERFSGSNSGNSATLTISRVDAGDEADYYCQVWDSRSDHPYVFGSGTKLTVL
notes: IgG
Neut IC50 (ug/ml) subtype A [1]: > 10 µg/mL | Neut IC50 (ug/ml) subtype B [2]: > 10 µg/mL | Kd [3]: 0.39 nM | Kd [5]: 0.312 nM

B4: ADI-15644 (antibody, V domains shown)
VH: QVQLVQSGAEVKKPGSSVKVSCRTSGGTFSSFSISWVRQAPGQGLEWMGGIIPIFGTANYAKKFQGRVTITADESTDTAYMELRSLRSEDTAVYYCARDSPKISATEYYFDYWGQGTLVTVSS
VL: DIQVTQSPSTLSASVGDRVTITCRASQSFTSWLAWYQQKPGKAPKLLIYKASTLDSGVPSRFSGSGSGTEFTLTINGLQPDDFATYYCQHYDSYSGTFGQGTRLEIK
notes: IgG
Neut IC50 (ug/ml) subtype A [1]: > 10 µg/mL | Neut IC50 (ug/ml) subtype B [2]: > 10 µg/mL | Kd [3]: 0.194 nM | Kd [5]: 0.301 nM

B5: ADI-15654 (antibody, V domains shown)
VH: QVQLVQSGAEVKRPGSSVKVSCKASGGTSSSYIISWVRQAPGQGLEWMGGIIPIPISGAPTYAQKFQGRANYAQKFEGRLTITADRLTSTAYMELSSLTSEDTAVYYCVRDERNGGYWGQGTLVTVSS
VL: QSALTQPASVSGSPGQSITISCTGTSNDVGAYNHVSWYQQHPGKAPKLMIYDVTNRPSGVSNRFSGSKSGNTASLTIFGLQTDDEADYYCSSYTISSTLVFGGGTQLTVL
notes: IgG; also called Antibody Number 218
Neut IC50 (ug/ml) subtype A [1]: 3.76 µg/mL | Neut IC50 (ug/ml) subtype B [2]: 3.27 µg/mL | Kd [4]: 4.47 nM | binding result [5]: no binding (tested: BLI response <0.05 nm)

B6: ADI-15632 (antibody, V domains shown)
VH: QVQLVQSGGGLVQPGRSLRLSCTASGFSFSDYGVTWVRQAPGKGLEWIGFVRTKGYGGTTEYAASVRGRFTISRDDSKSVAYLQLNSLKVEDTAVYYCSGASRGFWSGPTYYYFGMDVWGHGTTVTVSS
VL: EIVLTQSPLSLAVTPGEPASISCRSSQSLLHGNGYNYLDWYLQKPGQSPQLLIFWGSYRASGAPDRFSASGSGSEFTLKIRRVEAEDVGVYYCMQPLQTTFGQGTKVDIK
notes: IgG; also called Antibody Number 197
Neut IC50 (ug/ml) subtype A [1]: 1.42 µg/mL | Neut IC50 (ug/ml) subtype B [2]: 5.72 µg/mL | Kd [4]: 29.4 nM | Kd [5]: 2.25 nM

B7: ADI-15663 (antibody, V domains shown)
VH: QVQLVQSGGGLVKPGGSLRLSCAASGFTFSSYTMNWVRQAPGKGLEWVSSITGGSSFTNYADSLEGRFTISRDNAKSSLFLQMNSLRVEDTAVYYCARDQPGTIFGVVQDYWGQGTLVTVSS
VL: QSVLTQPPSVSGAPGQRVTISCTGGSSNIGAGYDVHWYQQLPGTAPKLLIYGNSNRPSGVPDRFSGSKSGTSASLAITGLQAEDEADYYCQSYDSRLSVVFGGGTKVTVL
notes: IgG
Neut IC50 (ug/ml) subtype A [1]: 0.003 µg/mL | Neut IC50 (ug/ml) subtype B [2]: 0.019 µg/mL | Kd [4]: 0.287 nM | Kd [5]: 2.32 nM

B8: ADI-15604 (antibody, V domains shown)
VH: EVQLLESGGGLVKPGGSLRLSCGASGFKFSDYYMSWIRQAPGKGLEWVSHISSSNSYINYADSVKGRFTISRDNARNSLSLQMNSLRAEDTAVYYCARFPLYCSRSSCSHYVDYWGQGTLVTVSS
VL: QSVLTQPPSVSGAPGQRVTISCTGSGSNIGAGYDVHWYQQLPGTAPKLLIYDNNNRPSGVPDRFSGSKSGTSASLAITGLQVEDEADYYCQSYDRSLSVVFGGGTKVTVL
notes: IgG; also called Antibody Number 170
Neut IC50 (ug/ml) subtype A [1]: 0.081 µg/mL | Neut IC50 (ug/ml) subtype B [2]: 0.082 µg/mL | Kd [3]: 1.77 nM | Kd [4]: 0.46 nM

B9: ADI-15666 (antibody, V domains shown)
VH: QVQLQQWGAGLLKPSETLSLTCGVSDGSFSAYYWNWIRQSPGKGLEWIGETNPSENTNYSPSLKNRVTISADRSANQFSLRLRSVTAADTGVYYCARGRGYYGSTTDYRGLHWFDPWGQGTLVTVSS
VL: ETTLTQSPVTLSVSPGERATLSCRASQSVSFNLAWYQQKPGQAPRLLIYGASTRVTNLPLRFSGSGSGTEFTLTISSLQSEDFAVYYCQQYNNWPRTFGQGTKLEIK
notes: IgG; also called Antibody Number 230
Neut IC50 (ug/ml) subtype A [1]: 1.41 µg/mL | Neut IC50 (ug/ml) subtype B [2]: > 10 µg/mL | Kd [3]: 0.546 nM | Kd [5]: 0.499 nM

B10: ADI-15628 (antibody, V domains shown)
VH: QVQLVQSGGGVVQPGRSLRLSCAASGFTFSDFSMHWVRQAPGKGLEWVALISNDGSNKYYSDSLKGSFIISRDNSKNTLYLQLNSLGAEDTALYYCARDAVPHYDYVWGNFDYWGPGTLVTVSS
VL: QPVLTQPASVSASPGQSITISCTGTSSDVGGYNYVSWYQQHPGKAPKLIVYEVSNRPSGVSNRFSGSKSGNTASLTISGLQADDEADYYCSSYTSFTPVVFGGGTKVTVL
notes: IgG
Neut IC50 (ug/ml) subtype A [1]: 0.014 µg/mL | Neut IC50 (ug/ml) subtype B [2]: 0.034 µg/mL | Kd [4]: 0.659 nM | Kd [5]: 2.47 nM

B11: ADI-15652 (antibody, V domains shown)
VH: EVQLLESGGGVVQPGRSLRLSCAASGFTFSDFSMHWVRQAPGKGLEWVALISNDGSNKYYSDSLKGSFIISRDNSKNTLYLQLNSLGAEDTALYYCARDAVPHYDYVWGNFDYWGQGTLVTVSS
VL: QSVLTQPASVSASPGQSITISCTGTSSDVGGYNYVSWYQQHPGKAPKLIIYEVSNRPSGVSNRFSGSKSGNTASLTISGLQADDEADYYCSSYTSFTPVVFGGGTKLTVL
notes: IgG
Neut IC50 (ug/ml) subtype A [1]: 0.012 µg/mL | Neut IC50 (ug/ml) subtype B [2]: 0.036 µg/mL | Kd [4]: 0.377 nM | Kd [5]: 4.98 nM

B12: ADI-15573 (antibody, V domains shown)
VH: QVQLVQSGAEVKKPGASVKISCKTSGYTFTSSVISWVRQAPGQGLEWVGWITGHRSSTNYAQRLQGRVTMTTDTSTSTAYMELRSLRSDDTAVYYCARADGGSGSYYSAWGQGTLVTVSS
VL: SYELTQPPSASVAPGKTARISCGGNNIGTKSVHWYQQKPGQAPVLVIYHDSHRPSGIPERFSGSNSGNTATLTISRVEAGDEADYYCQLWDSSSDSHVFGTGTKLTVL
notes: IgG; also called Antibody Number 143
Neut IC50 (ug/ml) subtype A [1]: 6.25 µg/mL | Neut IC50 (ug/ml) subtype B [2]: 1.67 µg/mL | Kd [3]: 0.199 nM | Kd [5]: 0.198 nM

B13: ADI-15578 (antibody, V domains shown)
VH: QVQLVQSGGGLVQPGGSLRLSCVGSGFTFSTYSMNWVRQAPGKGLEWVSHISSSSVTMYYADFVKGRFTISRDNAKNSLYLQMTSLRAEDTAVYYCARDAGPVWSGYYDYGMDVWGQGTTVTVSS
VL: ETTLTQSPATLSLSPGERATLSCRASQSVSSLLAWYQQKPGQAPRLLIFDASKRATGIPARFSGSGSGTDFTLTISSLEPEDFAVYYCQQRYNWPPLTFGGGTKVEIK
notes: IgG
Kd [3]: 1.54 nM | Kd [5]: 1.27 nM
